Reference: paper PMC4977500

Target: RAIDD DD (UniProt P78560)
Assay: native gel or EMSA; native-PAGE on a PhastSystem, 8-25% acrylamide gradient gels, Coomassie staining; complexes in 20 mM Tris pH 8.0, 50 mM NaCl; pre-incubated with or without peptide for 1 hour at room temperature; complex band without peptide taken as 100%

RAIDD DD, sequence (P78560 94-199): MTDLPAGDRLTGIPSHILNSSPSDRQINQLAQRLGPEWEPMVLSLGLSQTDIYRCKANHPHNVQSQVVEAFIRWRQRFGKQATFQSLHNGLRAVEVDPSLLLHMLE

percent of RAIDD DD:PIDD DD complex formation blocked at 30 μM peptide: 50%
Substance: TAT-Y814A (previously generated TAT-fused PIDD peptide with the mutation Y814A)
